The values below come from article PMC9912195, “The 3D‐structure, kinetics and dynamics of the E. coli nitroreductase NfsA with NADP ^+ provide glimpses of its catalytic mechanism” (Febs Letters, 2022).

The target in series [1] is T1, NfsA (Escherichia coli, UniProt P17117).
T1 construct: full-length, untagged, from pET24 derivative pPS1341A1 in E. coli BL21(lambda DE3); 240 amino acids
Briefly: stopped-flow re-oxidation of reduced enzyme, […] nm, anaerobic. The class given is biochemical. Particulars: dithionite-reduced enzyme.

The subject of series [2] is NC(=O)N/N=C/c1ccc([N+](=O)[O-])o1. Briefly: purified protein. The class given is biochemical, Escherichia coli. Particulars: co-substrate NADPH, 10 mM Tris pH 7.0, 50 mM NaCl, 4.5% DMSO, 25 °C.
The subject of series [3] is NC(=O)C1=CN([C@@H]2O[C@H](COP(=O)(O)OP(=O)(O)OC[C@H]3O[C@@H](n4cnc5c(N)ncnc54)[C@H](OP(=O)(O)O)[C@@H]3O)[C@@H](O)[C@H]2O)C=CC1. Briefly: purified protein. The class given is biochemical, Escherichia coli. Conditions: 100 μM nitrofurazone, 10 mM Tris pH 7.0, 4.5% DMSO, 25 °C.
The subject of series [4] is NC(=O)C1=CN([C@@H]2O[C@H](COP(=O)(O)OP(=O)(O)OC[C@H]3O[C@@H](n4cnc5c(N)ncnc54)[C@H](O)[C@@H]3O)[C@@H](O)[C@H]2O)C=CC1. Briefly: purified protein. Format: biochemical, Escherichia coli. Conditions: 100 μM nitrofurazone, 10 mM Tris pH 7.0, 4.5% DMSO, 25 °C.
Series [5] concerns the target T1, NfsA. As to the kind of experiment: steady-state kinetics. The class given is biochemical. Conditions: co-substrate NADPH.
In series [6] the target is T1, NfsA. Briefly: steady-state inhibition of nitrofurazone reduction, global ping-pong fit, […] nm. Format: biochemical.

T1 sequence (P17117 whole entry): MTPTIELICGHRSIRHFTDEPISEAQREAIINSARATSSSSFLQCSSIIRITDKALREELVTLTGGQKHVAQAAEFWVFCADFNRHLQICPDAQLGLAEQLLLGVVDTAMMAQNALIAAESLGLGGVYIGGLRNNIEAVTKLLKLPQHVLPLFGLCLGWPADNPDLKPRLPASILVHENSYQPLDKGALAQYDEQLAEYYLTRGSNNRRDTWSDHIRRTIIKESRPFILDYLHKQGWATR

Regarding `NC(=O)c1cc(N2CC2)c([N+](=O)[O-])cc1[N+](=O)[O-]` [CB1954, 5 aziridin‐1‐yl‐2,4 dinitrobenzamide], the K d on NfsA [1] (10 mM Tris pH 7, 5% DMSO, 25 °C, unreliable (extrapolated beyond highest concentration 500 μM)) is 660 ± 90 µM.

One may read the Km as the concentration of substrate that gives half-maximal velocity. As usually defined, the kcat is the maximal rate divided by the concentration of active sites. As a reminder, the kcat/Km is the turnover number divided by the Michaelis constant. Regarding NfsA (Escherichia coli K-12), in series [2], the Km was 12 µM and the kcat stood at 23.1 s⁻¹. In series [3], the Km worked out at 19 ± 4 µM, the kcat worked out at 24 ± 1 s⁻¹ and the kcat/Km is 1.2e+06 ± 200000 M⁻¹ s⁻¹. For the same compound, in series [4], the Km came to 700 ± 100 µM, the kcat amounted to 20 ± 1 s⁻¹ and the kcat/Km was found to be 27000 ± 3000 M⁻¹ s⁻¹.

In the case of `CC1=CC(=O)c2ccccc2C1=O` [menadione], the K d at NfsA [1] (10 mM Tris pH 7, 25 °C, unreliable (extrapolated, highest concentration 100 μM)) was 330 ± 115 µM. Also, on NfsA [5], the Km turned out to be 11 ± 2 µM.

A word on the Ki: it is the dissociation constant of the complex between target and ligand, obtained from inhibition or displacement. On to `NC(=O)c1ccc[n+]([C@@H]2O[C@H](COP(=O)(O)OP(=O)(O)OC[C@H]3O[C@@H](n4cnc5c(N)ncnc54)[C@H](OP(=O)(O)O)[C@@H]3O)[C@@H](O)[C@H]2O)c1` [NADP^+], for which the Ki on NfsA [6] stood at 250 ± 70 µM.
